Laboratory results published in PMC6044767.
Values joined by “and” are separate entries in the source; they are usually repeats but may differ in a detail not shown here. Equal entries are not always repeated. Values belong to the molecule of their own block, whether it stands above or below them.

What was measured:
[1] = target: native Escherichia coli L-asparaginase II (Kidrolase) (E. coli) (UniProt P00805)
[2] = target: native Escherichia coli L-asparaginase II (Kidrolase) (E. coli) (UniProt P00805); remark: listed apart in the source
[3] = target: native Escherichia coli L-asparaginase II (Kidrolase) (E. coli) (UniProt P00805); assay: native gel or EMSA
[4] = target: native Escherichia coli L-asparaginase II (Kidrolase) (E. coli) (UniProt P00805); assay: native gel or EMSA; remark: listed apart in the source
[5] = target: native Escherichia coli L-asparaginase II (Kidrolase) (E. coli) (UniProt P00805); assay: SEC
[6] = target: T1, N21-EcAII (E. coli K12), P00805; assay: SEC; conditions: remark: other sources report otherwise
T1 chain: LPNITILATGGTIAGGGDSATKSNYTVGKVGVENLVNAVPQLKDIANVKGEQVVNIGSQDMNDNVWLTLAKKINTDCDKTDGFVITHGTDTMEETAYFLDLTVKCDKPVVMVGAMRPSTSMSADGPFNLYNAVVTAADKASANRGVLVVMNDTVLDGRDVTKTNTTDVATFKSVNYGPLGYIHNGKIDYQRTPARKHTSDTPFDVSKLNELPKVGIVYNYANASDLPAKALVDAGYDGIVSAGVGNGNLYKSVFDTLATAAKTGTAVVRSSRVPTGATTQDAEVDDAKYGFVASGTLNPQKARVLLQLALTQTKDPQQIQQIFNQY

[7] = target: T1, N21-EcAII (E. coli K12), P00805; assay: SEC; conditions: remark: other sources report otherwise
[8] = target: T2, C8-EcAII (E. coli K12), P00805; assay: SEC; conditions: remark: other sources report otherwise
T2 chain: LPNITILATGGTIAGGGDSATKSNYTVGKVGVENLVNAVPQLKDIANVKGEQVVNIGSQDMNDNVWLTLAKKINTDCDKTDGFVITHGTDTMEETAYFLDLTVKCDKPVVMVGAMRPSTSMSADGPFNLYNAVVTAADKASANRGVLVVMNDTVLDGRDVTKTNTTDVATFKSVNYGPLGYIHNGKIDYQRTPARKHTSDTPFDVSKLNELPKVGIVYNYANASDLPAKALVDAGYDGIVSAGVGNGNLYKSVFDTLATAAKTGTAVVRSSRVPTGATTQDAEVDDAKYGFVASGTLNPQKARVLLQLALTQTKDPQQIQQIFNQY

[9] = target: T2, C8-EcAII (E. coli K12), P00805; assay: native gel or EMSA; conditions: remark: other sources report otherwise
[10] = target: T2, C8-EcAII (E. coli K12), P00805; assay: SEC; conditions: remark: other sources report otherwise
[11] = target: T3, N26-EcAII (E. coli K12), P00805; assay: SEC; conditions: remark: other sources report otherwise
T3 chain: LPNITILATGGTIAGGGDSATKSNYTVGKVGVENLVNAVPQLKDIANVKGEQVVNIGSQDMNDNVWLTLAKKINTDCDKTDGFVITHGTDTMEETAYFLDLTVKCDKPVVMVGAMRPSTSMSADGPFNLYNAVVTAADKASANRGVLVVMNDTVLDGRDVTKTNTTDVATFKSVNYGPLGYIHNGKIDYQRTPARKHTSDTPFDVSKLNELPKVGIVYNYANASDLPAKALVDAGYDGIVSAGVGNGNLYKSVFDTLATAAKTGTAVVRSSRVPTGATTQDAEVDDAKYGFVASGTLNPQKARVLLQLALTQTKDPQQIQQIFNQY

[12] = target: T3, N26-EcAII (E. coli K12), P00805; assay: native gel or EMSA; conditions: remark: other sources report otherwise
[13] = target: T3, N26-EcAII (E. coli K12), P00805; assay: SEC; conditions: remark: other sources report otherwise

Molecule: native Escherichia coli L-asparaginase II (Kidrolase) (from UniProt P00805 23-348) (enzyme)
specific activity in solution (GDH-coupled assay) [1]: 118 U mg^–1 | specific activity of EcAII immobilized on gold chips (GDH-coupled assay) [2]: 310 U mg^–1 | stoichiometry N [3]: 4 and 8 and 12 | stoichiometry N [4]: 8 and 12 and 4 | stoichiometry N [5]: 4 and 8 and 12

B2: C8-EcAII, P00805 23-348 (enzyme)
chain: LPNITILATGGTIAGGGDSATKSNYTVGKVGVENLVNAVPQLKDIANVKGEQVVNIGSQDMNDNVWLTLAKKINTDCDKTDGFVITHGTDTMEETAYFLDLTVKCDKPVVMVGAMRPSTSMSADGPFNLYNAVVTAADKASANRGVLVVMNDTVLDGRDVTKTNTTDVATFKSVNYGPLGYIHNGKIDYQRTPARKHTSDTPFDVSKLNELPKVGIVYNYANASDLPAKALVDAGYDGIVSAGVGNGNLYKSVFDTLATAAKTGTAVVRSSRVPTGATTQDAEVDDAKYGFVASGTLNPQKARVLLQLALTQTKDPQQIQQIFNQY
stoichiometry N [8]: 4 | percent dissociated into monomer [9]: 50% | stoichiometry N [9]: 4 and 8 | stoichiometry N [10]: 4

Now from value to molecule:

stoichiometry N [6]: 4 | stoichiometry N [7]: 8 and 12 and 4
B1: N21-EcAII, P00805 23-348 (enzyme)
chain: LPNITILATGGTIAGGGDSATKSNYTVGKVGVENLVNAVPQLKDIANVKGEQVVNIGSQDMNDNVWLTLAKKINTDCDKTDGFVITHGTDTMEETAYFLDLTVKCDKPVVMVGAMRPSTSMSADGPFNLYNAVVTAADKASANRGVLVVMNDTVLDGRDVTKTNTTDVATFKSVNYGPLGYIHNGKIDYQRTPARKHTSDTPFDVSKLNELPKVGIVYNYANASDLPAKALVDAGYDGIVSAGVGNGNLYKSVFDTLATAAKTGTAVVRSSRVPTGATTQDAEVDDAKYGFVASGTLNPQKARVLLQLALTQTKDPQQIQQIFNQY

stoichiometry N [11]: 4 | stoichiometry N [12]: 4 | stoichiometry N [13]: 4
B3: N26-EcAII, P00805 23-348 (enzyme)
chain: LPNITILATGGTIAGGGDSATKSNYTVGKVGVENLVNAVPQLKDIANVKGEQVVNIGSQDMNDNVWLTLAKKINTDCDKTDGFVITHGTDTMEETAYFLDLTVKCDKPVVMVGAMRPSTSMSADGPFNLYNAVVTAADKASANRGVLVVMNDTVLDGRDVTKTNTTDVATFKSVNYGPLGYIHNGKIDYQRTPARKHTSDTPFDVSKLNELPKVGIVYNYANASDLPAKALVDAGYDGIVSAGVGNGNLYKSVFDTLATAAKTGTAVVRSSRVPTGATTQDAEVDDAKYGFVASGTLNPQKARVLLQLALTQTKDPQQIQQIFNQY
